According to patent US20210332112A1:

Target: pertussis toxin (Bordetella pertussis) (UniProt P04977)
Experiment: ELISA, plate coated with pertussis toxin, antibody titrated, detection with goat anti-human kappa constant domain-HRP [panel C]

hu1B7-YTE extended half-life antibody was tested. Which EC50 (read off the curve) did it give?
The EC50 (read off the curve) was 0.04 µg/mL.
